According to PMC5453731 (Cell chemical biology, 2017):

B1: Rub1 (natural protein, yeast (BY4741), UniProt Q03919 1-77, looked up)
chain: MIVKVKTLTGKEISVELKESDLVYHIKELLEEKEGIPPSQQRLIFQGKQIDDKLTVTDAHLVEGMQLHLVLTLRGG
modifications: 15N-labelled
B2: Dsk2^UBL (domain or fragment, yeast (BY4741), UniProt P48510 1-76, looked up)
chain: MSLNIHIKSGQDKWEVNVAPESTVLQFKEAINKANGIPVANQRLIYSGKILKDDQTVESYHIQDGHSVHLVKSQPK
B3: Ubp6^UBL (domain or fragment, yeast (BY4741), UniProt P43593 1-80, looked up)
chain: MSGETFEFNIRHSGKVYPITLSTDATSADLKSKAEELTQVPSARQKYMVKGGLSGEESIKIYPLIKPGSTVMLLGTPDAN
modifications: 15N-labelled

Molecular target: T1, Rpn1^PC1 (Rpn1^391–642) (yeast (BY4741), UniProt P38764 391-642)
T1 sequence (looked up): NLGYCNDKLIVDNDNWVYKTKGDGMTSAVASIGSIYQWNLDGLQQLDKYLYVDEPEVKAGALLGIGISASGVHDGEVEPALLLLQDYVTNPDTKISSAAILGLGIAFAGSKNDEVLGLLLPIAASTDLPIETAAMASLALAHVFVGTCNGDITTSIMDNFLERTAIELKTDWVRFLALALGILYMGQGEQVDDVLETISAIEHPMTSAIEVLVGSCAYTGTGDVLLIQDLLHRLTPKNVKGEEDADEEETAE
Assay: NMR titration

Binder | Kd [µM]
B1 | 280 ± 20
B2 | 22 ± 12
B3 | 40 ± 31
